The series can be described thus: Compound gel-forming ability in water (visual inspection, tube tapping assay, tilted tube assay).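 As to all read-outs here: peptides mixed with de-ionized water at about 22-25 °C, judged after 20 min by eye plus tube tapping (10 taps, moves counted) and 90° tilt mobility.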 Type of series: physicochemical. The settings on record: for gel formation at 6% w/w: 6% w/w in water; for gel formation at 11% w/w: 11% w/w in water; for gel formation in aqueous solution, 11% / propensity to form gels, chimeric or mutated polypeptides, 11%: 11% w/w; for propensity to form gels, chimeric or mutated polypeptides, 11% / propensity to form gels, chimeric or mutated polypeptides, 6% / propensity to form gels, chimeric or mutated polypeptides, 20%: Table 5; for gel formation in aqueous solution, 6% / propensity to form gels, chimeric or mutated polypeptides, 6%: 6% w/w; for gel formation at 20% w/w: 20% w/w in water; for gel formation in aqueous solution, 20% / propensity to form gels, chimeric or mutated polypeptides, 20%: 20% w/w; for Physical property at 11% w/w: Table 2, 11% w/w in aqueous solution, room temperature.

The star is where a group is joined. Palmitoyl = CCCCCCCCCCCCCCCC(=O)*

Procedure: Determination of Compound Gel-forming Ability in Water: To determine the solubility of polypeptides at room temperature, 1, 2, 3, 4, 5, 20, or 100 mg of a selected peptide is weighed and deposited into a clear plastic or glass vial and an aliquot of de-ionized water was then added to the vial. The procedure takes place in a room which is maintained at approximately 22-25° C. […] Insoluble peptides sample retained the particles or paste-like characteristics after 20 min of reaction. In addition to visual inspection, we performed a tube tapping assay and a tilted tube assay to differentiate the gelling status of peptide solutions.
To determine the solubility of polypeptides at room temperature, 1, 2, 3, 4, 5, 20, or 100 mg of a selected peptide is weighed and deposited into a clear plastic vial and an aliquot of de-ionized water was then added to the vial. The procedure takes place in a room which is maintained at approximately 22-25° C. Polypeptide sample which is considered soluble dissolves instantly in water and stays as a clear solution without obvious macroscopic change in viscosity at 20 min after mixing with water. […] If macroscopic particles of peptides remain in the solution at 20 min after mixing with water, the peptide is considered insoluble or precipitated at the given concentration. In this case, the quality of peptides is further judged by two other criteria: (1) mobility following a tapping of the tube (tube tapping assay) and (2) mobility flowing tilting the tube by 900 (tilted tube assay). In the first assay, the tube is tapped with the finger for 10 times, and the number of times that the body of the solution changes position is recorded. An aqueous solution such as water will have a score of 9 or 10 in this assay; meaning that the body of the liquid moves every time when one taps the tube. […] Those with moderate viscosity form liquid gel that changes the conformation slowly when the container tube is tapped with a finger or tilted. […] If macroscopic change in the position of the body of gel was observed 5-9 time out of 10 separate tapping tests, the gel is considered a liquid gel. The high viscosity of a liquid gel is further confirmed using the tilted tube assay. […] If the liquid or gel body takes more than 15 seconds to flow to the bottom of the tilted tube, the resulting aqueous mass is considered a liquid gel.
To allow systematic analysis of the gel-forming ability, the assay was first conducted at a peptide concentration of 11% w/w in aqueous solution. The peptides analyzed included functional regulators of cell surface receptors, enzymes, complement factors, antimicrobial peptides, immunomodulators, therapeutic peptides, cell-penetrating peptide, antigens, matrikines, and analogs of CGRP, adrenomedullin and adenomedullin 2 (or intermedin).

As for “Pal-SSPHSY-miniPEG-HGDGSFSDEMNTILDNLAARDFINWLIQTKITD-OH [SEQ ID NO:222]”, the “gel formation at 6% w/w” value is “liquid gel”; the “gel formation at 11% w/w” value is recorded as “semisolid gel”; the “propensity to form gels, chimeric or mutated polypeptides, 11%” value (shortened to “propensity to form gels … 11%”) is reported as “SS (An ability to form semisolid gel is represented by an SS)”. In addition, the “gel formation in aqueous solution, 11%” value (Table 3) was “SS (SS for semisolid gel)”.
Consider “Pal-SSPHSY-miniPEG-ICVVQDWGHHRCT-NH2 [SEQ ID NO:244]”, for which the “gel formation at 11% w/w” value is given as “semisolid gel”; the “propensity to form gels, chimeric or mutated polypeptides, 6%” value (shortened to “propensity to form gels … 6%”) was “AS/IS”; the “propensity to form gels … 11%” value was “SS (An ability to form semisolid gel is represented by an SS)”. For the same substance, where the note is “Table 3”, the “gel formation in aqueous solution, 6%” value is “AS/IS (AS/IS for aqueous solution or insoluble)” and the “gel formation in aqueous solution, 11%” value is listed as “SS (SS for semisolid gel)”.
“Pal-SSPHSY-miniPEG-KCNTATCATQRLANFLVHSSNNFGPILPPTNVGSNTY-NH2 ({Palmitoyl-Ser-Ser-Pro-H2N-Ser-Tyr-miniPEG}-KCNTATCATQRLANFLVHSSNNFGPILPPTNVGSNTY-NH2; ends and bridges not checked) [SEQ ID NO:218]”: the “gel formation at 6% w/w” value was “semisolid gel”; the “gel formation at 11% w/w” value was “semisolid gel”; the “propensity to form gels … 6%” value was “SS (An ability to form semisolid gel is represented by an SS)”; the “propensity to form gels … 11%” value is reported as “SS (An ability to form semisolid gel is represented by an SS)”. Under “Table 3”, the “gel formation in aqueous solution, 6%” value is recorded as “SS (SS for semisolid gel)” and the “gel formation in aqueous solution, 11%” value is “SS (SS for semisolid gel)”.
In the case of “Pal-SSPHSY-miniPEG-PFRSVQ-NH2 [SEQ ID NO:242]”, the “gel formation at 6% w/w” value is reported as “liquid gel”; the “gel formation at 11% w/w” value is on record as “semisolid gel”; the “propensity to form gels … 11%” value is “SS (An ability to form semisolid gel is represented by an SS)”. Further, the “gel formation in aqueous solution, 11%” value (Table 3) is “SS (SS for semisolid gel)”.
In the case of “Pal-SSPHSY-miniPEG-RC-(D-Ala)-H-(D-Phe)-RWC-NH2. [SEQ ID NO:227]”, the “gel formation at 30% w/w” value (30% w/w in water) is “form gel”. Moreover, the “gel formation in aqueous solution, 11%” value (Table 3) is on record as “AS/IS (AS/IS for aqueous solution or insoluble)”. The “gel formation in aqueous solution, 30%” value (Table 3, 30% w/w) is listed as “SS (SS for semisolid gel)”.
On to “Pal-SSPHSY-miniPEG-RGD-NH2 [SEQ ID NO:247]”, for which the “gel formation at 11% w/w” value is “semisolid gel” and the “propensity to form gels … 11%” value is on record as “SS (An ability to form semisolid gel is represented by an SS)”. In addition, the “gel formation in aqueous solution, 11%” value (Table 3) is on record as “SS (SS for semisolid gel)”.
In the case of “Pal-SSPHSY-miniPEG-SDAAVDTSSEITTKDLKEKKEVVEEAEN-NH2 ({Palmitoyl-Ser-Ser-Pro-H2N-Ser-Tyr-miniPEG}-SDAAVDTSSEITTKDLKEKKEVVEEAEN-NH2) [SEQ ID NO:239]”, the “gel formation at 11% w/w” value is “does not form gel”. The “gel formation in aqueous solution, 11%” value (Table 3) is given as “AS/IS (AS/IS for aqueous solution or insoluble)”.
Regarding “Pal-SSPHSY-miniPEG-SLRRSSCFGGRMDRIGAQSGLGCNSFRY-NH2 [SEQ ID NO:238]”, the “gel formation at 11% w/w” value is listed as “semisolid gel”; the “gel formation at 20% w/w” value is given as “semisolid gel”; the “propensity to form gels … 11%” value is given as “SS (An ability to form semisolid gel is represented by an SS)”; the “propensity to form gels, chimeric or mutated polypeptides, 20%” value is listed as “SS (An ability to form semisolid gel is represented by an SS)”. Further, where the note is “Table 3”, the “gel formation in aqueous solution, 11%” value is on record as “SS (SS for semisolid gel)” and the “gel formation in aqueous solution, 20%” value is given as “SS (SS for semisolid gel)”.
On to “Pal-SSPHSY-miniPEG-SYSMEHFRWGKPVGKKRRPVKVYP-OH [SEQ ID NO:225]”, for which, under “Table 3”, the “gel formation in aqueous solution, 11%” value is given as “AS/IS (AS/IS for aqueous solution or insoluble)” and the “gel formation in aqueous solution, 20%” value was “SS (SS for semisolid gel)”.
Regarding “Pal-SSPHSY-miniPEG-VGVAPG-NH2 [SEQ ID NO:248]”, the “gel formation at 11% w/w” value is on record as “liquid gel”; the “gel formation at 20% w/w” value is recorded as “semisolid gel”; the “propensity to form gels, chimeric or mutated polypeptides, 20%” value is recorded as “SS (An ability to form semisolid gel is represented by an SS)”. The “gel formation in aqueous solution, 20%” value (Table 3) is reported as “SS (SS for semisolid gel)”.
On to “Pal-SSPHSY-miniPEG-YADAIFTNSYRKVLGQLSARKLLQDIMSR-NH2 [SEQ ID NO:236]”, for which, where the note is “Table 3”, the “gel formation in aqueous solution, 6%” value is “AS/IS (AS/IS for aqueous solution or insoluble)” and the “gel formation in aqueous solution, 11%” value is “AS/IS (AS/IS for aqueous solution or insoluble)”.
For “Pal-SSPHSY-miniPEG-YIGSR-NH2 [SEQ ID NO:246]”, the “gel formation at 11% w/w” value is reported as “semisolid gel”; the “propensity to form gels … 6%” value was “SS (An ability to form semisolid gel is represented by an SS)”; the “propensity to form gels … 11%” value is on record as “SS (An ability to form semisolid gel is represented by an SS)”. Moreover, where the note is “Table 3”, the “gel formation in aqueous solution, 6%” value is recorded as “SS (SS for semisolid gel)” and the “gel formation in aqueous solution, 11%” value was “SS (SS for semisolid gel)”.
In the case of “Pal-SSPHSY-miniPEG-YRSRKYSSVVY-NH2 ({Palmitoyl-Ser-Ser-Pro-H2N-Ser-Tyr-miniPEG}-YRSRKYSSVVY-NH2) [SEQ ID NO:249]”, the “gel formation at 11% w/w” value was “semisolid gel”; the “propensity to form gels … 6%” value was “AS/IS”; the “propensity to form gels … 11%” value is given as “SS (An ability to form semisolid gel is represented by an SS)”. Besides, under “Table 3”, the “gel formation in aqueous solution, 6%” value is recorded as “AS/IS (AS/IS for aqueous solution or insoluble)” and the “gel formation in aqueous solution, 11%” value is recorded as “SS (SS for semisolid gel)”.
Regarding “Pal-VGSKAF-NH2 (Palmitoyl-VGSKAF-NH2; SMILES CCCCCCCCCCCCCCCC(=O)N[C@H](C(=O)NCC(=O)N[C@@H](CO)C(=O)N[C@@H](CCCCN)C(=O)N[C@@H](C)C(=O)N[C@@H](Cc1ccccc1)C(N)=O)C(C)C; UniProt P06881 114-119, looked up, fragment) [SEQ ID NO:132]”, the “Physical property at 11% w/w” value was “AS/IS (AS/IS for aqueous solution or insoluble)”.
On the same count and under the same terms, the entry for Pal-VGSNTY-NH2 [SEQ ID NO:133] is “AS/IS (AS/IS for aqueous solution or insoluble)”; for “Pal-VQKLAHQIYQFTDKDVAPRSKISPQGY-NH2 (Palmitoyl-VQKLAHQIYQFTDKDVAPRSKISPQGY-NH2; SMILES CCCCCCCCCCCCCCCC(=O)N[C@H](C(=O)N[C@@H](CCC(N)=O)C(=O)N[C@@H](CCCCN)C(=O)N[C@@H](CC(C)C)C(=O)N[C@@H](C)C(=O)N[C@@H](Cc1c[nH]cn1)C(=O)N[C@@H](CCC(N)=O)C(=O)N[C@H](C(=O)N[C@@H](Cc1ccc(O)cc1)C(=O)N[C@@H](CCC(N)=O)C(=O)N[C@@H](Cc1ccccc1)C(=O)N[C@H](C(=O)N[C@@H](CC(=O)O)C(=O)N[C@@H](CCCCN)C(=O)N[C@@H](CC(=O)O)C(=O)N[C@H](C(=O)N[C@@H](C)C(=O)N1CCC[C@H]1C(=O)N[C@@H](CCCNC(=N)N)C(=O)N[C@@H](CO)C(=O)N[C@@H](CCCCN)C(=O)N[C@H](C(=O)N[C@@H](CO)C(=O)N1CCC[C@H]1C(=O)N[C@@H](CCC(N)=O)C(=O)NCC(=O)N[C@@H](Cc1ccc(O)cc1)C(N)=O)[C@@H](C)CC)C(C)C)[C@@H](C)O)[C@@H](C)CC)C(C)C) [SEQ ID NO:102]” it is “AS/IS (AS/IS for aqueous solution or insoluble)”.

These data come from US20200405868A1, “GEL-FORMING POLYPEPTIDES” (priority 2018, published 2020).
